Test results reported in the nanobody polyreactivity screen of Harvey et al. (2022).

Assay: yeast display, Sf9 membrane polyspecificity reagent, FACS + sequencing; frameworks hold sequencing errors
Summary of the method: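 Using colony PCR, genes from sorted yeast display clones were amplified, then sequenced on MiSeq at 2 × 250 and filtered by CDR length. The clones had been stained with 10% biotinylated, detergent-solubilized Sf9 membrane reagent for 1 hour at 4 °C and sorted by FACS into low and high (top ~1%) gates on anti-HA and streptavidin fluorescence. Polyreactivity labels come from the gate of origin.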

Sequence | polyreactivity (PSR sort gate)
QVQLVESGGGLVQAGGSLRLSCASSGITFILYAMGWYRQAPGKDRELVASITSGGSTDYADSVKGRFTISRDNAKNTVYFQMNSLKPEDTAVYYCAARYVYPYWYGDYYWGQGTQVTVSS | low polyreactivity
QVPLVESGGGLVQAGGILRLSCAASGRIFLPYAMGWYRQAPGQERELVAAITSSDGSTHYADSVKGRFTISRDNAQNTVYLQMNSLKPEDTAVYYCNAARATYYYYLDDYWGQGTQVTVSS | low polyreactivity
QVHLVESGAGLVQAGGSLRLSCPASGSIFFLYPMGWYRQAPGKESELVAAITWRVGSTYYADSVKGRFTISRDNAKNTVYLQMNSLKPEDTAVYYCAAYFLGFQVRYDYWGQGTQVTVSS | high polyreactivity
QVQLVESGGGLVQAGGSLRLSCAASGSTFVYYAMGWYRQAPGKERELVASITGGGRTNYADSVKGRFTISRENAKNNVYLQMNSLKPEDTAVYYCAKDHASYYYWPSVLPYDHWGQGSQVTVSS | low polyreactivity
QVQLQESGGGLEQAGGSLRLSCAASGYISHIGTMGWYRQAPGKEREFVATIVVGSTTNYADSVKRRFTISRDNAKNTVYLQPESGRYRGVLLRGWLLAVGKFTYWGQGTQETVSS | low polyreactivity
QVQLVESGGGLVQAGGSLRLSCAASGRIFRYYAMGWYRQAPGKEREFVAAINSSGVNTYYADSVKGRFTISRDNAKNTVYLQMNSLKPEDTAVYYCAADWYQWGGRYYAPRYYYWGQGTQVTVSS | high polyreactivity
QVQLVESGGGLVQAGGSLRLSCAASGSIFVDYAMGWSRPAPGKERELVVAISLSGGSTYYADSVKGRFTISRDNAKNTVYLQMNSLKPEDTAVYYCNAELIKGTYRWYEGGSQYGYWGHGTQVTVSS | low polyreactivity
QDQLVESGGGLVQAGGSLRLSCAASGRIFDLYAMGWYRQAPGKERELVATISTRGGRTYYADSVKGRFTISRDNAKNTVYLQMKRLKPEDTAVYYWNARYLGYGWFDYWGQGTQVTVSS | low polyreactivity
QVQLVESGGGLVQAGGSLRLSCAASGLTFGFYAMGWYRQAPGKERELVAGISNGGSTNYADSVKGRFTISRDNAKNTVYLQMNSLKPEDTAVYYCAARLYARRLYDYWGQGTQVTVSS | low polyreactivity
QVKLVESGGGLVQAGGILRLSCAASGLIFTTYAMGWYRQAPGKERELVAVISGCGSTSYADSVKGRFTISRDNAKNTVYLQMNSLKPEDTAVYYCAADKPVSQGPIPGYTNDYWGQGTQVTVSS | low polyreactivity
QVQLVESGGGLVQAGGSLRLSCAASGFIFSYYAMGWYRQAPGKERELVATITRSGGRTYYADSVKGRFTISRDNAKNTVYLQMNSLKPEDTAVYYCAADYYYKDDSWGQGTQVTVSS | high polyreactivity
QVQLVESGGGLVQAGGSLRLSCAASGRTFYPYAMGWYRQAPGKERELVATITWSGTTTYYADSVKGRFTISRDNAKNIVYLQMNSLKPEDTAVYYCAADVWEVVTPYGTIDDDYWGQGTQVTVSS | high polyreactivity
QVQLVESGGGLVQAGGSLRLSCAASGSTFTVYAMGWYRQAPGKERELVAAISWGGGSTNYADSVKGRFTISRDNAKNTVYLQMNSLKPEDTAVYYCNADIDDIIGSWGDYWGQGTQVTVSS | low polyreactivity
QVQLVESGGGLVHAGGSLRLSCAASGIILSDNSMGWYRQAPGKEREVVAAITGSGGSTYYADSVKGRFTISRDNAKNTVYLQMNSLKPEDTAVYYCAADGPYGYYYGHYGYWGQGTQVTVSS | low polyreactivity
QVQLVESGGGLVQAGGSLRLSCAASGSTFRYNTMGWYRQAPGTERELVATISWRGGRTYYADSVKGRFTISRDNAKNTVYLQMNSLKPEDTAVYYCASIATVPRDYGGNYWGQGTQVTVSS | low polyreactivity
QVQLVESGGGLVQAGGSLRLSCAASGSIFLGNAMGWYSPAPGKERELVAAISYSGGSTYYADSVKGRFTISRDNAKNTVYLQMNSLKPEDTDVYYCAADRSSQFDLDYWGQGTRVTVSS | low polyreactivity
QVQLVESGGGLFQAGGSLRLSCAASGSPFSSYAIGWYRQAPGKERELVAAISYRGTRTRYADSVKGRFTISRDNAKNTVYLQMNSLKPEDTAVYDCAADRTFYGIRFDYWGQGTQVTVSS | low polyreactivity
QVQLVESGGGLVQAGGSLRLSCAASGGTFRRYAMGWYRQAPGKERELVAAISWTGGSTYYADSVKGRFTISRDNAKNTVYLQMNSLKPEDTAVYYCAAVGSSSSKGGYWGQGTQVTVSS | high polyreactivity
QVQLVESGGGLVQAGGSHRLSCAASGRTFPYYAMGWYRQAPGKERELVAAITRGVRTHYADSVKGRFTISRDNAKNTVYLQMNSLKPEDTAVYYCAREDWGSYSDMDSWGQGTQVTVSS | low polyreactivity
QVQLVESGGGLVQAGGSLRLSCAASGRTFVYYDMGWYRQAPGKERELVASISSGDSTNYADSVKGRFTISRDNAKNTFYLQMNSLKPEDTAVYYCAAQYSWGHYYTFDYWGLGTQVTVSS | low polyreactivity
QVQLVESGGGLVQAGGSLRLSCAASGIIFKYYAMGWYRQAPGKERELVAAITGNGGSTYYADSVKGRFTISRDNAKNTVYLQMNSLKPEDTAVYYCATRWFAVHMYWGQGTQVTVSS | high polyreactivity

Sequence | polyreactivity (PSR sort gate)
QVQLVESGGGLVQAGGSLRLSCAASGSTFFPYAMGWYRQAPGKERELVAGISSDGGTSYADSVKGRFTISRDNAKNTVYLQMNSLKPEDTAVYYCAARGLLWYYSWRYYYWGQGTQVTVSS | low polyreactivity
QVQLVESGGGLVQAGGSLRLSCAASGRIFLVNAKGWYRQAPGKERELVAAITYSGRSTYYAYSVKGRFTISRDNAKNTVYLQMNSLKPEDTSLYYCAALHHTQHDYWGQGTQVTVSS | low polyreactivity
QVQLVESGGGLVQAGGSLRLSCAASGRIIFTNAMGWYRQARGKERELVASISRGGVRTYYADSVKGRFTISRDNAKNTVYLQMNSLKPEDTAVYYCDKGYHLVLPPLPQYDYWGQGTQVTVSS | low polyreactivity
QVQLVESGGGLVQAGGSLRLSCAASGRTFAVYAMGWYRQAPGKERELVATINGGGNTNYADSVKGRFTISRDNAKNTVYLQMNSLKPVDTAVYYCAADAWDHWTWFYPTNGMDYWGQGTQVTVSS | low polyreactivity
QVQLVESGGGLVQAGGSLRLSCAASGRTFQTNAMGWYRQAPGKERELVAAISSTGGSTYYADSVKGRFTISRDNAKNTVYLQMNRLKPEDTAVYYCNAGRTYRYDYWGQGTQVTVSS | high polyreactivity
QVQLVESGGGLVQAGGSLRLSCAASGSIFRKYSMGWYRQAPGKERELVAGITGRGGRTYYADSVKGRFTISRDNAKNTVYLQMNSLKPDDTAVYYCAATVSPSYDYWGQGTQVTVSS | high polyreactivity
QVQLVESGGGLVQAGGSLRLSCAASGFIFTRYAMGWYRQAPGKERELVATITSGGSTNYADSVKGRFTISRDNAKNTVYLQMNSLKPEDTAVYYCTARWTGSYTSTGFRRRFDYWGQGTQVTVSS | high polyreactivity
QVQLVESGAGLVQAGGSLRLSCAASGLIFGTDAMGLYRQAPGKESELVAAITSGGRTYYADSVKGRFTISRDNAKNTVYLQLISLKPEDTAVYYCAAEGWWNDTPYDYWGQVTQVTVSS | low polyreactivity
QVQLVESGGGLVQAGGSLRLSCAASGFTFSRYAMGWYRQAPGKERELVAAITSGGSTYYADSVKGRFTISRDNAMNTVYLQMNSLKPEDTAVYYCAVGVAEFFGYGYWGQGTQVTVSS | high polyreactivity
QVQLVESGGGLVQAGGSLRLSCAPSGYIPYWYAMGWYRQAPGKERELVAAIDWSGASTNYADSVKGRFTISRDNAKNTVYLQMNSLKPEDTAVYYCAADAVSPDYFVWGDYWGQGTQVTVSS | high polyreactivity
QVQLVESGGGLVQAGGSLRLSCAASGSTFPDYAMGWYRQAPGKEREFVASITWSDGSTYYADSVKGRFTISRDNAKNTVYLQMNSLKPEDTAVYYCIADYVYYYIPVVYEYDYWGQGTQVTVSS | high polyreactivity
QVQLVESGGGLVQAGGSLRLSCAASGTFYLYAMGWYRQAPGKERELVARINSSGSTNLRRLCEGALHNFTRQCEEYRLFTDEQPETGRYRVYYCNADTKRSSREYDYWGQGTQVTVSS | low polyreactivity
QVQLVESGGGIDQAGGSLRLSCAASGNTFYWYAMGWYRQAPGKERDLVAAISRGGRTNYADSVKGRFTISRDNAKNTVYLQMNSLKPEDTAVYFCAKDSNYPQPSKGWYRYDYWGLGTQVTVSS | high polyreactivity
QVQLVESVGGLVQEGGSLRLICAASGSIFYTYAMGWYRQAPGKERELVAAIRSTGRTNYADSVKGRFTISRDNAKNTVYLHMNSLKPEDTGVYYCAAGTNYGKLRIRFDYWGQGTQVTVSS | low polyreactivity
QVQLVDSGGGLVQAGGSLRLSCAASGLIFAYYAMGWYRKAPGKERELVAAISSVGSTYYADSVKGRFTISRDNAKNTVYLQMNSLKPEDTSVYYCAAALYPYYWPEYNYWGQGTQVTVSS | high polyreactivity
QVQLVESGGGLVQAGGSLRLSCAASGRIFWHNAMGWYRQAPGTERELVAAITGGGSTYYADSVKGRFTISRDNAKNTVYLQMNSLKPEDTAVYYCATLGSLRYYWPGYDYWGQGTQVTVSS | low polyreactivity
QVQLVESGGGLVQAGGSLRLSCAASGRTFPGYAMGWYRQAPGKERELVAAITSSGSSTYYADSVKGRFTISRDNAKNTVYLQMNSLKPEDTAVYYCAAKTSGDYDYWGQGSQVTVSS | low polyreactivity
QVQLVESGGGLVQAGGSLRLSCAASGGTFYPYAMGWYRPAPGKERELVAAISASDDNTYYADSVKGRFTISRDNAKNTVYLQMNSLKPEDTAVYYCAKRSYFYPYYYWGQGTQVTVSS | high polyreactivity
QVQLVESGGGLVKAGGRLRLSCAASGSIFKKYAMGWYRQAPGKERELVAAITSGRSTYYADSVKGRFTISRDNAKKTVYLQMNSLKPEDTAVYYCANYRKGSLGSWGQGTQGTVSS | high polyreactivity
QVQLVESGGGLVQAGGSLRLSCAASGITFYYYTMGWYRTAPGKEREFVAVISGSGGSTYYADSVKGRFTISRDNAKNTVYLQMNSLKPEDTAVYYCAARNSFLAYFVGLIQEDDYWGQGTQVTVSS | high polyreactivity
